According to patent US10588946B2, “Peptide for promoting bone formation or inhibiting bone resorption and use thereof” (SEOUL NATIONAL UNIVERSITY R&DB FOUNDATION, priority 2015, dated 2020):
Entries after “also recorded” stand apart in the source; their conditions may differ. Where no end group is shown, it is not given here.

Assays:
[1] = tested on: osteogenic cells; assay: Adhesion inhibition assay (cell attachment to VnP-16 after preincubation); assay type: cell-based, human; settings: 5 mM EDTA, 500 μM MnCl2, 100 μg/mL heparin, 10 μg/mL blocking antibody; VnP-16 9.1 μg/cm^2, 1 hour
Protocol: Cells (5×10^4 cells/250 μL) were preincubated with 5 mM EDTA, 500 μM MnCl2, 100 μg/mL heparin, and 10 μg/mL function-blocking antibodies against integrin α1 (FB12), α2 (P1E6), α3 (P1B5), α4 (P4C2), α5 (P1D6), α6 (NKI-GoH3), β3 (B3A; Chemicon), av (AV1), β1 (6S6; Millipore), or β3 (B3A) subunits at 37° C. for 15 minutes. […] The attached cells were quantified as described in Example 6.

[2] = tested on: osteogenic cells; assay: Cell spreading assay on coated plates; assay type: cell-based, human; settings: serum-free medium, 3 hours
From the text: (§1) Plates were gently washed three times with PBS.

[3] = tested on: rat models with critical-size calvarial defects; assay: Rat critical-size calvarial defect model; assay type: in vivo; settings: collagen sponge implant, two weeks after surgery
Protocol: For critical-size calvarial defects, 8-week-old male Sprague-Dawley rats (n=5 rats/group) were used. VnP-16 was dissolved in DDW and SP in DMSO (5 mg/mL) and then diluted with DDW. Absorbable collagen sponges (Bioland) were loaded with human recombinant BMP-2 (4 μg/cm^2, 15 μL volume; PeproTech), synthetic peptides (1 mg/cm^2 and 2 mg/cm^2, 15 μL volume), or vehicle (10 μL of DMSO and 5 μL of DDW). The surgical procedures for the creation of an 8 mm circular defect in the parietal bone and implantation of the collagen sponge were performed as described in the reference (Lee, J. H., et al., Biomaterials, 31, 3512 to 3519 (2010)). The rats were euthanized at 2 weeks after surgery, and whole calvaria were fixed in 4% paraformaldehyde at 4° C. for 24 hours and analyzed by μCT scanning. Details for the μCT scans are illustrated below.
For histomorphometric analysis, the specimens were decalcified with 12% EDTA for 4 weeks and embedded in paraffin. […] The mice were sacrificed on day 7, and the whole calvariae were dissected, cleaned of soft tissue, fixed in 4% paraformaldehyde at 4° C. for 24 hours, subjected to TRAP staining, and then analyzed by μCT scanning. μCT was performed with the Micro-CT Skyscan 1172 system (70 kV, 141 μA, and 38 minutes integration time; Skyscan). […] The regenerated bone volume and bone mineral content were calculated with CT Analyser version 1.14.4.1 (Bruker-microCT). […]

[4] = tested on: mature osteoclasts; assay: Viability of mature osteoclasts (surviving osteoclasts after TRAP staining); assay type: cell-based, mouse; settings: 24 hours, 9.1 μg/cm^2
Protocol: The results of FIGS. 12b and 12c are expressed as mean±S.D. (n=4) ([…].)
Mature osteoclasts were cultured for 24 hours on Osteo Assay Surface plates precoated with vehicle (DMSO), SP (9.1 μg/cm^2), or VnP-16 (9.1 μg/cm^2), in the presence of M-CSF (30 ng/mL) and RANKL (100 ng/mL).

[5] = tested on: osteogenic cells, NHDFs, NHOFs, MC3T3-E1, and NIH/3T3 cells; assay: Cell viability assay (water-soluble tetrazolium salt, WST); assay type: cell-based, human; settings: VnP-16 for 24 hours and 48 hours
Protocol: The viability of human osteogenic cells was analyzed using the EZ-Cytox cell viability assay kit (water-soluble tetrazolium salt (WST) assay; Daeillab). Osteogenic cells (3×10^3 cells/100 μL) were seeded on a 96-well microplate, adapted for 48 hours, and treated with 50 μg/mL, 100 μg/mL, or 200 μg/mL of VnP-16 at 37° C. for 24 hours or 48 hours. The WST reagent solution (10 μL) was added to each well of the 96-well microplate containing 100 μL of cells. The plate was incubated at 37° C. for 2 hours. The absorbance was measured at 450 nm using a microplate reader (BioRad).

[6] = tested on: BMMs; assay: Proliferation and viability of BMMs; assay type: cell-based, mouse; settings: 9.1 μg/cm^2
[7] = target: T1, β1 integrin (Homo sapiens, UniProt P05556); assay: Pulldown assay with biotinylated VnP-16; assay type: binding; settings: human osteogenic cells and HOS cells, 3 hours; vs streptavidin beads alone
T1 construct: osteogenic cells that were transfected with a control (Con) siRNA (10 nM) or β1 integrin siRNA (10 nM); endogenous in cells; host or cells: human osteogenic cells differentiated from foreskin skin-derived precursors (SKPs)
T1 sequence (P05556 21-798): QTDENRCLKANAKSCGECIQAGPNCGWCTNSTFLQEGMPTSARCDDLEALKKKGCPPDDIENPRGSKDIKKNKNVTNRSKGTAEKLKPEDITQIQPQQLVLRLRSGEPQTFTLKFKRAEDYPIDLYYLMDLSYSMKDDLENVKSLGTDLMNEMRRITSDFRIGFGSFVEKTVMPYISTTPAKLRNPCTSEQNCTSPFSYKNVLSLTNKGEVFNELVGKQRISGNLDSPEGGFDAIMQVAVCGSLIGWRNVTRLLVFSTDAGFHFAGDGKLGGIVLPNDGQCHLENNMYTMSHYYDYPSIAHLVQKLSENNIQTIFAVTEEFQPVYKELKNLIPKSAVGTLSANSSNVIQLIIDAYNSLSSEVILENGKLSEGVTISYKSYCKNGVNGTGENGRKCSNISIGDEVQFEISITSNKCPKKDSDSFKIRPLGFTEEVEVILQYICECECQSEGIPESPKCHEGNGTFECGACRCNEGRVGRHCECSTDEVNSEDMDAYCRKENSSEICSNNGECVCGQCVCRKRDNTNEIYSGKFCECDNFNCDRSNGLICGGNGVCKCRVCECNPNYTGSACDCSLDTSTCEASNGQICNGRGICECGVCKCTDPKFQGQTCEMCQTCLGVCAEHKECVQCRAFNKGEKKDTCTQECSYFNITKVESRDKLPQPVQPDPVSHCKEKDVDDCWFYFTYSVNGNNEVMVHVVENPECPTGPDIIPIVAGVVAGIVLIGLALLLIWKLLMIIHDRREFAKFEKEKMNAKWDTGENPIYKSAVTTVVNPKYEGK
Protocol: Pulldown assays were performed using a biotinylated VnP-16 peptide according to a known method (Bottcher, R. T., Bio protocol 3, e962 (2013)). […] Cells (3×10^6) were seeded onto 100 mm culture dishes coated with biotin-conjugated VnP-16 peptides, incubated for 3 hours, and washed twice with cold PBS. The cells were scraped with 500 μL lysis buffer (50 mM Tris-HCl, pH 7.5, 150 mM NaCl, 0.1% Na-deoxycholate, 1% Triton X-100, protease, and phosphatase inhibitor cocktail tablets) followed by passing the lysates 15 times through a 26.5-gauge needle and centrifuging at 17,000×g for 10 minutes at 4° C. The supernatants of the cell lysates were incubated with 60 μL of streptavidin-agarose beads (Thermo Fisher Scientific, Waltham, Mass.) and centrifuged at 1,500×g for 2 minutes at 4° C. After washing the beads four times with lysis buffer, the precipitated proteins were resolved by 8% SDS-PAGE and analyzed by immunoblotting.

[8] = tested on: osteoblast precursors and osteogenic cells
Protocol: SKP-derived mesenchymal cells (MSCs), mouse calvarial osteoblast precursors (MC3T3-E1), and human osteogenic cells (Osteogenic) were cultured on VnP-16 (9.1 μg/cm^2)-coated plates in osteogenic differentiation medium with or without PF-573228 (1 μM) for 2 weeks.
To visualize mineral deposits, cells were fixed with cold 95% ethanol for 30 minutes at −20° C. for 30 minutes and stained with 40 mM Alizarin red S solution (pH 4.2) for 1 hour. The stained cells were washed five times with DDW and rinsed with PBS for 15 minutes.

[9] = target: FAK (Homo sapiens, UniProt Q05397); settings: pretreated 1 hour; VnP-16 9.1 μg/cm^2
Sequence of FAK (Q05397 whole entry): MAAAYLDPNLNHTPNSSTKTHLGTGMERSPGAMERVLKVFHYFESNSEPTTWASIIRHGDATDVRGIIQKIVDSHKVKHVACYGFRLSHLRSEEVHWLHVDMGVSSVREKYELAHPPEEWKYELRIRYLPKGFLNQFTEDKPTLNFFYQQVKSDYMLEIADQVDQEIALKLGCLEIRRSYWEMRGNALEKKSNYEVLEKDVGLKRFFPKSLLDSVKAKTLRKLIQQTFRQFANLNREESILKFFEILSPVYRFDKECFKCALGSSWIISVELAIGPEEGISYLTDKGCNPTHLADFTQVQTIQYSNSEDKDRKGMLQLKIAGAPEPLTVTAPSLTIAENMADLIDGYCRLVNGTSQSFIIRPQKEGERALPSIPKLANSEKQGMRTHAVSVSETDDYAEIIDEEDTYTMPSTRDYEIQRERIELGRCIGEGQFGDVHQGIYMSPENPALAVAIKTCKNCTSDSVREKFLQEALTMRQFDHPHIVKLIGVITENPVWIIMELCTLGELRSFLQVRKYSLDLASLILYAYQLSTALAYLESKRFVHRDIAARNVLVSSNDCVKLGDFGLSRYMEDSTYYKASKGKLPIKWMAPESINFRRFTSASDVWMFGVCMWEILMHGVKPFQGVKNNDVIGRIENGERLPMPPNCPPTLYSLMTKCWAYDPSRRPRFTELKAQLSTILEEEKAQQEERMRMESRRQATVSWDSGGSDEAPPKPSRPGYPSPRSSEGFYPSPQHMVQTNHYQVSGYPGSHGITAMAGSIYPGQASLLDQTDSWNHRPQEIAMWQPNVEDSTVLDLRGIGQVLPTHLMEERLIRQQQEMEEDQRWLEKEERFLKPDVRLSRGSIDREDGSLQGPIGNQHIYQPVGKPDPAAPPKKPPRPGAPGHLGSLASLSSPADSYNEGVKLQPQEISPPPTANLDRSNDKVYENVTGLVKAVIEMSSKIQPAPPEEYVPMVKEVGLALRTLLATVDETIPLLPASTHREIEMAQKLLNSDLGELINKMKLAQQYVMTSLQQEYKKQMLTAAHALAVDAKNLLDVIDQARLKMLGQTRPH

[10] = tested on: osteogenic cells; assay: Cell migration assay (transwell); assay type: cell-based, human; settings: 24 hours
Protocol: Cell migration assays were performed with transwell migration chambers (pore size, 8 μm; Corning). […] Cells (2×10^5 cells/mL) were resuspended in DMEM containing 0.5% FBS and 0.1% BSA. This suspension (100 μL) was seeded in the upper chamber of a transwell filter. After seeding the […] (100 μL) to the upper chamber of the transwell migration chambers, the cells were allowed to migrate at 37° C. for 24 hours. Cells were then fixed with 10% formalin for 15 minutes and stained with 0.5% crystal violet. Unmigrated cells, those remaining in the upper side of the transwell filter, were removed with a cotton swab and counted under light microscopy. Cell migration was quantified by counting the number of cells that had migrated through the filter.

[11] = tested on: human osteogenic cells; assay: Cell attachment assay on coated plates; assay type: cell-based; settings: for cell attachment activity of osteogenic cells: substrate-coated plates, serum-free medium, 1 hour; for coating concentration at which cell attachment activity reached a maximum level: osteogenic cells, dose-response
From the text: as §1

[12] = VnP-16-coated plates, osteogenic differentiation medium, PF-573228 1 μM, 2 weeks

## [Cl][Mn][Cl] [Mn^2+, MnCl2]
[1]
  cell attachment to VnP-16 after pretreatment of cells: significantly enhanced

## FVWRQFYKYEKG (SEQ ID NO: 23) (Scrambled peptide) [SP, scrambled peptide used as control, reference compound]
[2]
  cell spreading: ineffective
[3]
  new bone formation in calvarial defects (μCT images): only limited new bone formation

## O=C(O)CN(CCN(CC(=O)O)CC(=O)O)CC(=O)O [EDTA]
[1]
  cell attachment to VnP-16 after pretreatment of cells: completely inhibited

## heparin
[1]
  cell attachment to VnP-16 after pretreatment of cells: not inhibited

## RVYFFKGKQYWE-NH2 [VnP-16, RVYFFKGKQYWE (SEQ ID NO: 17)]
[4]
  viability of osteoclasts: no effect
[5]
  viability of cells or cell lines tested: did not affect
[6]
  cell proliferation and viability of BMMs: did not affect

## biotinylated VnP-16: biotin-conjugated VnP-16 peptide used for pulldown (RVYFFKGKQYWE-NH2; also: biotinylated)
[7]
  binding of β1 integrin in pulldown: selectively bound

## CS(=O)(=O)c1cccc(CNc2nc(Nc3ccc4c(c3)CCC(=O)N4)ncc2C(F)(F)F)c1 [PF-573228]
[8]
  cell growth: did not affect
[8]; [12]
  alkaline phosphatase (ALP) activity: notably weakened
  calcium deposition: reduced
[9]
  cell attachment to VnP-16 after pretreatment of PF-573228: significantly inhibited in a dose-dependent manner

B1: rVn-FIII: recombinant human vitronectin truncation III expressed in E. coli (protein)
chain: GRTSAGTRQPQFISRDWHGVPGQVDAAMAGRIYISGMAPRPSLAKKQRFRHRNRKGYRSQRGHSRGRNQNSRRPSRATWLSLFSSEESNLGANNYDDYRMDWLVPATCEPIQSVFFFSGDKYYRVNLRTRRVDTVDPPYPRSIAQYWLGCPAPGHL
modifications: rVn-FIII
notes: recombinant human vitronectin truncation III expressed in E. coli
[10]
  cell migration: induced no cell spreading or migration
[2]
  cell spreading: induced no cell spreading or migration
[11]
  cell attachment activity of osteogenic cells: did not adhere

B2: rVn-FI: recombinant human vitronectin truncation I expressed in E. coli (protein)
chain: DQESCKGRCTEGFNVDKKCQCDELCSYYQSCCTDYTAECKPQVTRGDVFTMPEDEYTVYDDGEEKNNATVHEQVGGPSLTSDLQAQSKGNPEQTPVLKPEEEAPAPEVGASKPEGIDSRPETLHPGRPQP
modifications: rVn-FI
notes: recombinant human vitronectin truncation I expressed in E. coli
[10]
  cell migration: induced cell spreading and migration
[2]
  cell spreading: induced cell spreading and migration
[11]
  coating concentration at which cell attachment activity reached a maximum level: about 5.7 μg/cm^2
  cell attachment activity of osteogenic cells: adhered; also recorded: promoted cell attachment, although to a lower extent than full-length vitronectin

B3: human plasma vitronectin: Human vitronectin purchased from Millipore (protein, UniProt P04004 20-478, looked up)
Vitronectin: DQESCKGRCTEGFNVDKKCQCDELCSYYQSCCTDYTAECKPQVTRGDVFTMPEDEYTVYDDGEEKNNATVHEQVGGPSLTSDLQAQSKGNPEQTPVLKPEEEAPAPEVGASKPEGIDSRPETLHPGRPQPPAEEELCSGKPFDAFTDLKNGSLFAFRGQYCYELDEKAVRPGYPKLIRDVWGIEGPIDAAFTRINCQGKTYLFKGSQYWRFEDGVLDPDYPRNISDGFDGIPDNVDAALALPAHSYSGRERVYFFKGKQYWEYQFQHQPSQEECEGSSLSAVFEHFAMMQRDSWEDIFELLFWGRTSAGTRQPQFISRDWHGVPGQVDAAMAGRIYISGMAPRPSLAKKQRFRHRNRKGYRSQRGHSRGRNQNSRRPSRATWLSLFSSEESNLGANNYDDYRMDWLVPATCEPIQSVFFFSGDKYYRVNLRTRRVDTVDPPYPRSIAQYWLGCPAPGHL
[10]
  cell migration: strongly promoted
[2]
  cell spreading: strongly promoted
[11]
  cell attachment activity of osteogenic cells: strongly promoted

B4: rVn-FII: recombinant human vitronectin truncation, 173 residues, amino acids at positions 150 to 322 (protein)
chain: PAEEELCSGKPFDAFTDLKNGSLFAFRGQYCYELDEKAVRPGYPKLIRDVWGIEGPIDAAFTRINCQGKTYLFKGSQYWRFEDGVLDPDYPRNISDGFDGIPDNVDAALALPAHSYSGRERVYFFKGKQYWEYQFQHQPSQEECEGSSLSAVFEHFAMMQRDSWEDIFELLFW
modifications: rVn-FII
[10]
  cell migration: induced no cell spreading or migration
[2]
  cell spreading: induced no cell spreading or migration
[11]
  coating concentration at which cell attachment activity reached a maximum level: about 5.7 μg/cm^2
  cell attachment activity of osteogenic cells: lower cell attachment activity compared to that of rVn-FI; also recorded: adhered; also recorded: promoted cell attachment, although to a lower extent than full-length vitronectin; also recorded: significant cell attachment activity
